Experimental data published in patent US20250042994A1 (HAINAN SIMCERE ZAIMING PHARMACEUTICAL, published 2025).

T1: human CD19 exon1-3-his protein (human, UniProt P15391 20-186, limits assumed)
T1 construct: made in HEK293E cells; also called membrane-distal end; not shown: His tag
T1 sequence (looked up): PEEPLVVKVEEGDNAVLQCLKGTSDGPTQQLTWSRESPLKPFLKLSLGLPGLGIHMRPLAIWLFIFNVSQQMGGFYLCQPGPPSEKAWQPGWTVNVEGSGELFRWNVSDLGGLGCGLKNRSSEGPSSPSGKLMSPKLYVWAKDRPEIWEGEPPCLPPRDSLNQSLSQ

T2: murine CD19 protein (murine, UniProt P25918 17-287, limits assumed)
T2 construct: bought protein; also called commercial murine CD19
T2 sequence (looked up): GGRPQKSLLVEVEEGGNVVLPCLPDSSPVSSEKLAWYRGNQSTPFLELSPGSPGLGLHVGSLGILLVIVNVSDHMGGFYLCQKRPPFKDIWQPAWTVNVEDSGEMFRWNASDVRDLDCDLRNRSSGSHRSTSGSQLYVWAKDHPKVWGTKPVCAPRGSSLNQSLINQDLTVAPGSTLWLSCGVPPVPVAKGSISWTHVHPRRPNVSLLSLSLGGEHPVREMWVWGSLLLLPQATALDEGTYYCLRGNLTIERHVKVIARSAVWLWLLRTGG

T3: Human CD19-his protein (human, UniProt P15391 20-291)
T3 construct: bought protein; also called human CD19 protein; recombinant human CD19-His; not shown: His tag
T3 sequence (looked up): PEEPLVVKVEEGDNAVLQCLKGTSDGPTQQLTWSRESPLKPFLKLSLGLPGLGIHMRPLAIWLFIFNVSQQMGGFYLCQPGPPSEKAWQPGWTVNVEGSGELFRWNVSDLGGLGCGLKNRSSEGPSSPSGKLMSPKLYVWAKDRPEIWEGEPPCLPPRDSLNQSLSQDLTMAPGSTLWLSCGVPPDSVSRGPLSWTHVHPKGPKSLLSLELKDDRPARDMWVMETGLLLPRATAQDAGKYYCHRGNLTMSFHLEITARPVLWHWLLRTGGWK

B1: F4.49.11 (antibody, human IgG1, V domains shown)
VH: DVQLRASGPGLVKPSQSLSLTCSVTGYSITSGYYWNWIRQFPGNKLEWMGCISYDGTNNYNPSLKNRISFTRDTSKNQFFLNLNSVTTEDSATYYCARRVYYRYDGVVDYWGQGTSVTVSS
VL: ENVLTQSPAIMSASPGEKVTMTCSASSSVSYIHWYQQKSSTAPKLWIYDTSKLASGVPGRFSGSRSRNSYSLTISSMEAEDVATYYCFQGSGYPLTFGSGTKLEIK
notes: human-murine chimeric antibody, human IgG1
B2: F4.96.6 (antibody, human IgG1, V domains shown)
VH: EIQLQQSGPELVKPGASVKVSCKASGYAFSAYNIYWVKQSHGKSLEWIGYIDPYNSGTTYNQKFRGKATLTVDKSSNTAYMHLSSLTSEDSAVYYCTRDGDAMDYWGQGTSVTVSS
VL: EILLTQSPAIIAASPGEKVTITCSASSGVIYMNWYQQKPGSSPKIWIYDVSTLASGVPARFSGSGSGTSFSFTINSMEAEDVATYYCQQRSSYPYTFGGGTKLEIK
notes: as for B1
B3: F4.37.6 (antibody, human IgG1, V domains shown)
VH: QVQLQQSGAELARPGASVKLSCKASGYTFTSFWMQWLKQRPGQGLEWIGTIYPGDGDTRYTQKFKGKATLTADKSSNTAYMQLSSLASEDSAVYYCARGALSNYGGFAYWGQGTLVTVSA
VL: NIVLTQSPASLAVSLGQRATISCRASESVDSYGHSFMHWYQQKPGQPPKLLIYLASNLESGVPARFSGSGSRTDFTLTIDPVEADDAATYYCQQNNEDPWTFGGGTKLEIK
notes: as for B1
B4: F4.58.6 (antibody, human IgG1, V domains shown)
VH: QVQLQQPGAELVKPGASVKLSCKASGYTFTSYWMHWVKQRPGQGLEWIGEIDPSDSYSNYNQKFKGKATLTVDKSSSTAYMQLSSLTSEDSAVYYCARSNYGSSYGYFDVWGAGTTVTVSS
VL: QIVLTQSPAIMSASPGEKVTMTCSVSSSLSYMHWYQQKPGTSPKRWIYDTSKLASGVPARFSGSGSGTSYSLTISSMEAEDAATYYCHQRSSYPTFGGGTKLEIK
notes: as for B1
B5: F4.35.5 (antibody, human IgG1, V domains shown)
VH: EIQLQQSGPELVKPGASVKVSCKASGYAFTSYNMYWVKQSHGKSLEWIGYIDPYNGDTRYNQKFKGKATLTVDKSSSTAYMHLNSLTSEDSAVYYCTRSGTGRDYWGQGTTLTVSS
VL: QIVLTQSPAIMSASPGEKVTMTCSASSSISYMFWFQQKPGSSPRLLIYDTSSLASGVPVRFSGSGSGTSYTLTISRMEAEDAATYYCQQWSNYPYTFGGGTKLEMK
notes: as for B1
B6: F6.2.9 (antibody, human IgG1, V domains shown)
VH: QVQLQQSGAELVKPGASVKISCKASGYAFSSYWMNWVKQRPGKGLEWIGQIYPGDGDTNYNGKFKGKATLTADKSSSTGYMQLSSLTSEDSAVYFCARSRITSVVDWYFDVWGTGTTVTVSS
VL: QIVLSQSPAILSASPGEKVTMTCRASSSVSYMHWYQQKPGSSPKPWIYATSNLASGVPARFSGSGSGTSYSLTISRVEAEDAATYYCQQWSSNPPTFGAGTKLELK
notes: as for B1
B7: F6.5.20 (antibody, human IgG1, V domains shown)
VH: QVQLQQPGAELVKPGASVKLSCKASGYTFTSYWMQWVKQRPGQGLEWIGEIDPSDSYTNYNQKFKGKASLTVDTSSSTAYMQLSSLTSEDSAVYYCARWGLLRNYYVMDYWGQGTSVTVSS
VL: EIVLTQSPTTMAASPGEKITITCSASSSISSNYLHWYQQKPGFSPKLLIYRTSNLASGVPARFSGSGSGTSYSLTIGTMEAEDVATYYCQQGSSIPRMLTFGAGTKLELK
notes: as for B1
B8: F4.276.12 (antibody, human IgG1, V domains shown)
VH: EIQLQQSGPELVKPGASVKVSCKASGYAFSAYNMYWVKQSHGKSLEWIGYIDPYNGGTNYNQKFKGKATLTVDKSSSTAYMHLNSLTSEDSAVYYCARDGYEVTYWGQGTLVTVSA
VL: QIVLTQSPALMSASLGEEITLTCSASSSVTYMHWSQQKSGTSPRLLIYSTSNLASGVPSRFSGSGSGTFYSLTISSVEAEDAADYYCHQWSSYPWTFGGGTKLEIK
notes: as for B1
B9: F3.23.10 (antibody, human IgG1, V domains shown)
VH: EFQLQQSGPELVKPGASVKISCKASDYSFTDYNMNWVKQSNGASLEWIGIINPNFGSTSYNQKFKGKATLTVDQSSSTAFMQLNSLTSEDSAVYYCARSEYYGSSGFAYWGQGTLVTVSA
VL: DVVVTQTPLSLPVSFGDQVSISCRSSQSLVNSYGNTYLSWYLHKPGQSPQLLIYGISNRFSGVPDRFSGSGSGTDFTLKITTIKPEDLGMYYCLQGTHQPWTFGGGTKLEIK
notes: as for B1
B10: F5.11.2 (antibody, human IgG1, V domains shown)
VH: EVQLVESGGDLVKPGGSLKLSCAASGFTFSSYGMSWVRQTPDKRLEWVATISHGGSYTHYPDSVKGRFTISRDNAKNTLYLQMNSLKSEDTAMYYCVRLPITTVEAPYFFDYWGQGTTLTVSS
VL: DIQMTQTTSSLSASLGDRVTISCRASQDIRNYLNWYQQKPDGTVKLLIYYTSILHSGVPSRFSGSGSGTDYSLTINNLEQEDVATYFCQQGNTLYTFGGGTEVELR
notes: as for B1

biological target: T1, human CD19 exon1-3-his protein; assay: ELISA, coated at 2 ug/mL
Description: (§1) Human CD19-his protein (purchased from ACROBiosystems, catalog number: CD9-H52H2) was diluted with PBS to a final concentration of 4 μg/mL, and then added to a 96-well ELISA plate at 100 μl/well. The plate was sealed with a plastic film and incubated overnight at 4° C., the plate was washed 2 times with PBS the next day, and then a blocking solution [PBS+2% (w/w) BSA] was added for blocking at room temperature for 2 h. The blocking solution was poured off, and 100 nM gradiently diluted CD19 chimeric antibody or control antibody was added at 50 μl/well. After incubation at 37° C. for 2 h, the plate was washed 3 times with PBS. […] TMB substrate was added at 50 μl/well, and incubated at room temperature for 10 min, and then a stop solution (1.0 N HCl) was added at 50 μl/well. The OD450 nm values were read by an ELISA microplate reader (Multimode Plate Reader, EnSight, purchased from Perkin Elmer).
CD19 protein contains 4 exons in the extracellular region, in which exons 1-3 are located at the membrane-distal end and exon 4 is located at the membrane-proximal end. […] To identify the distribution of antigen binding epitopes of the chimeric antibodies, human CD19 exon 1-3-His (membrane-distal end) was used to coat at 2 μg/mL according to the ELISA method in example 5.1.

| binding result | Binder |
| --- | --- |
| no binding | B1 |
| no binding | B2 |
| no binding | B3 |
| no binding | B4 |
| no binding | B5 |
| no binding | B6 |
| no binding | B7 |
| no binding | B8 |

biological target: T2, murine CD19 protein; assay: ELISA, coated murine CD19
Description: as §1
In order to detect the species cross-binding activity of the chimeric antibodies, an ELISA plate was coated with commercial murine CD19 (ACROBiosystems, catalog number: 50510-M08H) and monkey CD19 (ACROBiosystems, catalog number: 90051-C08H), respectively, and the ELISA detection was performed according to the method in example 5.1.

| binding result | Binder |
| --- | --- |
| no binding | B9 |
| no binding | B10 |
| no binding | B1 |
| no binding | B2 |
| no binding | B3 |
| no binding | B4 |
| no binding | B5 |
| no binding | B6 |
| no binding | B7 |
| no binding | B8 |

biological target: T3, Human CD19-his protein; assay: ELISA, antibody at 10 nM
Description: as §1

| OD450 | Binder |
| --- | --- |
| 1.85 | B9 |
| 2.68 | B10 |
| 0.85 | B1 |
| 1.16 | B2 |
| 1 | B3 |
| 0.8 | B4 |
| 0.65 | B5 |
| 0.26 | B6 |
| 0.43 | B7 |
| 1.2 | B8 |

biological target: T3, Human CD19-his protein; assay: ELISA, antibody at 100 nM
Description: as §1

| OD450 | Binder |
| --- | --- |
| 2.14 | B9 |
| 3.01 | B10 |
| 1.16 | B1 |
| 1.64 | B2 |
| 1.08 | B3 |
| 0.94 | B4 |
| 0.87 | B5 |
| 0.33 | B6 |
| 0.63 | B7 |
| 1.43 | B8 |

biological target: T3, Human CD19-his protein; assay: ELISA, antibody at 0.01 nM
Description: as §1

| OD450 | Binder |
| --- | --- |
| 0.09 | B9 |
| 0.14 | B10 |
| 0.07 | B1 |
| 0.11 | B2 |
| 0.2 | B3 |
| 0.09 | B4 |
| 0.07 | B5 |
| 0.06 | B6 |
| 0.1 | B7 |
| 0.13 | B8 |

biological target: T3, Human CD19-his protein; assay: ELISA, antibody at 0.10 nM
Description: as §1

| OD450 | Binder |
| --- | --- |
| 0.39 | B9 |
| 0.56 | B10 |
| 0.13 | B1 |
| 0.29 | B2 |
| 0.6 | B3 |
| 0.3 | B4 |
| 0.25 | B5 |
| 0.08 | B6 |
| 0.34 | B7 |
| 0.4 | B8 |

biological target: T3, Human CD19-his protein; assay: ELISA, antibody at 1.00 nM
Description: as §1

| OD450 | Binder |
| --- | --- |
| 1.27 | B9 |
| 1.82 | B10 |
| 0.48 | B1 |
| 0.91 | B2 |
| 0.8 | B3 |
| 0.67 | B4 |
| 0.5 | B5 |
| 0.13 | B6 |
| 0.45 | B7 |
| 1.07 | B8 |

biological target: T3, Human CD19-his protein; assay: ELISA, antibody at 0.001 nM
Description: as §1

| OD450 | Binder |
| --- | --- |
| 0.06 | B9 |
| 0.07 | B10 |
| 0.05 | B1 |
| 0.06 | B2 |
| 0.09 | B3 |
| 0.05 | B4 |
| 0.05 | B5 |
| 0.06 | B6 |
| 0.06 | B7 |
| 0.06 | B8 |

biological target: T3, Human CD19-his protein; assay: ELISA, antibody at 0.0001 nM
Description: as §1

| OD450 | Binder |
| --- | --- |
| 0.05 | B9 |
| 0.06 | B10 |
| 0.04 | B1 |
| 0.05 | B2 |
| 0.07 | B3 |
| 0.05 | B4 |
| 0.05 | B5 |
| 0.06 | B6 |
| 0.05 | B7 |
| 0.05 | B8 |
